Experimental data reported in patent publication US20250026833A1 (WUXI BIOLOGICS IRELAND, published 2025).

Molecular target: T1, hPD-L1-ECD.mFc, W315-hPro1.ECD.mFc (in house) (human, UniProt Q9NZQ7 19-238)
T1 construct: extracellular domain; also called Human PD-L1, mFc tag; not shown: C-terminal mouse Fc
Assay: dual binding (bridging) ELISA: plate coated with hVEGF.his, titrated antibody, then hPD-L1-ECD.mFc at 1 ug/ml, HRP goat anti-mouse IgG

T1 sequence (Q9NZQ7 19-238): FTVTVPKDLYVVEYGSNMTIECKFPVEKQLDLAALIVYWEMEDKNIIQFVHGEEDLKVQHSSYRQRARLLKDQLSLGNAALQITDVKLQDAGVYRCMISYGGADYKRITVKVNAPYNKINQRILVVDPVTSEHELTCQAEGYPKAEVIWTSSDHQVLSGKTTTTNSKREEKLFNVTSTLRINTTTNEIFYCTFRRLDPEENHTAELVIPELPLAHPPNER

B1: Avastin (bevacizumab) (antibody, human IgG1, V domains shown)
VH: EVQLVESGGGLVQPGGSLRLSCAASGYTFTNYGMNWVRQAPGKGLEWVGWINTYTGEPTYAADFKRRFTFSLDTSKSTAYLQMNSLRAEDTAVYYCAKYPHYYGSSHWYFDVWGQGTLVTVSS
VL: DIQMTQSPSSLSASVGDRVTITCSASQDISNYLNWYQQKPGKAPKVLIYFTSSLHSGVPSRFSGSGSGTDFTLTISSLQPEDFATYYCQQYSTVPWTFGQGTKVEIK
notes: also called parental anti-VEGF antibody
  binding result: no binding (tested: 100 nM)
